± gives the standard deviation of the averaged measurements.
Tested on: ATP
Assay: switch fluorescence ratio, 500 uM ATP over buffer (Cy3 cluster intensity, sum of 5 cycles each) (fold (ratio)); higher = stronger signal-on switching upon ATP binding; sequences stand for … in TCGTCGGCAGCGTCAGATGTGTATAAGAGACAGTTTTTTTTTTTTTTTTTTTTTTTTT…TC
Conditions: aptamer strand: ATP DNA aptamer (quencher-CACCTGGGGGAGTATTGCGGAGGAAGG + anchor), 100 nM annealed; ATP concentration: 500 uM
How it was run: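 The fluorescence ratio divides summed target-cycle Cy3 intensity by summed buffer-cycle Cy3 intensity for each cluster and is averaged per switch-domain sequence. Cy3-labelled switching-strand clusters on a modified Illumina MiSeq flow-cell were annealed to 100 nM quencher-labelled ATP aptamer, then imaged in selection buffer and again after 15 min with 500 uM ATP at 22 °C. Five such cycles were run, with NaOH stripping and re-annealing between them, and clusters outside 100-1000 RFU were excluded.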
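Also: ATP exposure 15 min at 22 °C before imaging.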

**Q.** Which switch fluorescence ratio does the source give for GGGGATGATG here?
**A.** 0.9683 ± 0.0046

**Q.** Which switch fluorescence ratio does the source give for GGGGATGCGA here?
**A.** 1.09 ± 0.1

**Q.** For GGGGATGCGC, which switch fluorescence ratio is on record?
**A.** 1.02 ± 0.011

**Q.** With GGGGATGCTG as the sequence, how does the switch fluorescence ratio read?
**A.** 0.902 ± 0.21

**Q.** Which switch fluorescence ratio does the source give for GGGGATGGAA here?
**A.** 1.02 ± 0.013

**Q.** With GGGGATGGCA as the sequence, how does the switch fluorescence ratio read?
**A.** 1.02 ± 0.012

**Q.** How did the switch fluorescence ratio turn out when GGGGATGGTC was run?
**A.** 0.962 ± 0.0016

**Q.** How did the switch fluorescence ratio turn out when GGGGATGTAA was run?
**A.** 1.01 ± 0.013

**Q.** For GGGGATGTGG, which switch fluorescence ratio is on record?
**A.** 0.99 ± 0.037

**Q.** With GGGGATGTGT as the sequence, how does the switch fluorescence ratio read?
**A.** 1 ± 0.035

**Q.** For GGGGATTAGA, which switch fluorescence ratio is on record?
**A.** 0.9846 ± 0.0072

**Q.** How did the switch fluorescence ratio turn out when GGGGATTGTG was run?
**A.** 0.991 ± 0.029

**Q.** GGGGCAAAGC was tested. Which switch fluorescence ratio did it give?
**A.** 0.96 ± 0.085

**Q.** With GGGGCAAGGA as the sequence, how does the switch fluorescence ratio read?
**A.** 0.987 ± 0.023

**Q.** Which switch fluorescence ratio does the source give for GGGGCAAGGG here?
**A.** 1.28 ± 0.28

**Q.** GGGGCACGCT was tested. Which switch fluorescence ratio did it give?
**A.** 0.999 ± 0.03

**Q.** GGGGCAGCCG was tested. Which switch fluorescence ratio did it give?
**A.** 1.01 ± 0.059

**Q.** For GGGGCAGGGG, which switch fluorescence ratio is on record?
**A.** 1.05 ± 0.062

**Q.** With GGGGCAGTGT as the sequence, how does the switch fluorescence ratio read?
**A.** 0.991 ± 0.042

**Q.** With GGGGCCAAGT as the sequence, how does the switch fluorescence ratio read?
**A.** 0.981 ± 0.037

**Q.** GGGGCCGGGT was tested. Which switch fluorescence ratio did it give?
**A.** 0.998 ± 0.02

**Q.** For GGGGCCGTGC, which switch fluorescence ratio is on record?
**A.** 1.01 ± 0.038

**Q.** For GGGGCCTTGG, which switch fluorescence ratio is on record?
**A.** 1.01 ± 0.022

**Q.** For GGGGCGCGGG, which switch fluorescence ratio is on record?
**A.** 1.03 ± 0.033

**Q.** For GGGGCGCGGT, which switch fluorescence ratio is on record?
**A.** 1.025 ± 0.0058

**Q.** With GGGGCGGCGA as the sequence, how does the switch fluorescence ratio read?
**A.** 1.02 ± 0.047

**Q.** For GGGGCGGGGA, which switch fluorescence ratio is on record?
**A.** 0.996 ± 0.045

**Q.** Which switch fluorescence ratio does the source give for GGGGCGTCAG here?
**A.** 0.97 ± 0.013

**Q.** How did the switch fluorescence ratio turn out when GGGGCGTTCG was run?
**A.** 1 ± 0.071

**Q.** How did the switch fluorescence ratio turn out when GGGGCTAACG was run?
**A.** 1.02 ± 0.03

**Q.** Which switch fluorescence ratio does the source give for GGGGCTAAGC here?
**A.** 1 ± 0.026

**Q.** With GGGGCTACTA as the sequence, how does the switch fluorescence ratio read?
**A.** 1.01 ± 0.014

**Q.** GGGGCTATCG was tested. Which switch fluorescence ratio did it give?
**A.** 1.16 ± 0.24

**Q.** Which switch fluorescence ratio does the source give for GGGGCTGAGG here?
**A.** 0.93589 ± 0.00088

**Q.** Which switch fluorescence ratio does the source give for GGGGCTGCTT here?
**A.** 0.9718 ± 0.0035

**Q.** For GGGGCTGGCG, which switch fluorescence ratio is on record?
**A.** 1.03 ± 0.11

**Q.** GGGGCTTATG was tested. Which switch fluorescence ratio did it give?
**A.** 0.968 ± 0.0079

**Q.** How did the switch fluorescence ratio turn out when GGGGCTTCTA was run?
**A.** 0.957 ± 0.018

**Q.** How did the switch fluorescence ratio turn out when GGGGCTTTCC was run?
**A.** 1.09 ± 0.052

**Q.** Which switch fluorescence ratio does the source give for GGGGGAAACT here?
**A.** 1.013 ± 0.0073

**Q.** How did the switch fluorescence ratio turn out when GGGGGAAAGT was run?
**A.** 0.992 ± 0.026

**Q.** With GGGGGAACCT as the sequence, how does the switch fluorescence ratio read?
**A.** 1.0549 ± 0.00095

**Q.** For GGGGGAAGGG, which switch fluorescence ratio is on record?
**A.** 0.984 ± 0.027

**Q.** Which switch fluorescence ratio does the source give for GGGGGAAGTG here?
**A.** 0.976 ± 0.026

**Q.** How did the switch fluorescence ratio turn out when GGGGGAATAT was run?
**A.** 1.13 ± 0.39

**Q.** GGGGGACACT was tested. Which switch fluorescence ratio did it give?
**A.** 1.01 ± 0.022

**Q.** With GGGGGACAGA as the sequence, how does the switch fluorescence ratio read?
**A.** 0.969 ± 0.013

**Q.** GGGGGACCGG was tested. Which switch fluorescence ratio did it give?
**A.** 1.01 ± 0.072

**Q.** With GGGGGACCTA as the sequence, how does the switch fluorescence ratio read?
**A.** 0.946 ± 0.026

**Q.** Which switch fluorescence ratio does the source give for GGGGGACCTT here?
**A.** 1.04 ± 0.061

**Q.** How did the switch fluorescence ratio turn out when GGGGGACGTT was run?
**A.** 0.981 ± 0.031

**Q.** Which switch fluorescence ratio does the source give for GGGGGACTGT here?
**A.** 0.938 ± 0.057

**Q.** With GGGGGAGCAC as the sequence, how does the switch fluorescence ratio read?
**A.** 0.997 ± 0.017

**Q.** Which switch fluorescence ratio does the source give for GGGGGAGCTA here?
**A.** 1 ± 0.032

**Q.** Which switch fluorescence ratio does the source give for GGGGGAGCTT here?
**A.** 0.9828 ± 0.0078

**Q.** Which switch fluorescence ratio does the source give for GGGGGAGGAT here?
**A.** 1.03 ± 0.057

**Q.** Which switch fluorescence ratio does the source give for GGGGGAGGCT here?
**A.** 0.987 ± 0.034

**Q.** Which switch fluorescence ratio does the source give for GGGGGAGGGC here?
**A.** 1.01 ± 0.031

**Q.** For GGGGGAGTCC, which switch fluorescence ratio is on record?
**A.** 0.985 ± 0.014

**Q.** Which switch fluorescence ratio does the source give for GGGGGAGTGT here?
**A.** 0.985 ± 0.026

**Q.** For GGGGGATCAT, which switch fluorescence ratio is on record?
**A.** 0.9921 ± 0.0016

**Q.** For GGGGGATGCT, which switch fluorescence ratio is on record?
**A.** 0.975 ± 0.039

**Q.** For GGGGGATGTT, which switch fluorescence ratio is on record?
**A.** 0.997 ± 0.026

**Q.** How did the switch fluorescence ratio turn out when GGGGGATTTT was run?
**A.** 0.999 ± 0.027

**Q.** GGGGGCAACA was tested. Which switch fluorescence ratio did it give?
**A.** 0.973 ± 0.03

**Q.** Which switch fluorescence ratio does the source give for GGGGGCAATT here?
**A.** 0.987 ± 0.021

**Q.** How did the switch fluorescence ratio turn out when GGGGGCAGAG was run?
**A.** 0.991 ± 0.035

**Q.** How did the switch fluorescence ratio turn out when GGGGGCAGCT was run?
**A.** 1 ± 0.027

**Q.** With GGGGGCAGGC as the sequence, how does the switch fluorescence ratio read?
**A.** 0.964 ± 0.053

**Q.** Which switch fluorescence ratio does the source give for GGGGGCAGTT here?
**A.** 1 ± 0.013

**Q.** Which switch fluorescence ratio does the source give for GGGGGCATCG here?
**A.** 1.01 ± 0.018

**Q.** Which switch fluorescence ratio does the source give for GGGGGCCATC here?
**A.** 1.003 ± 0.0017

**Q.** For GGGGGCCCTT, which switch fluorescence ratio is on record?
**A.** 1.02 ± 0.043

**Q.** For GGGGGCCGCC, which switch fluorescence ratio is on record?
**A.** 0.988 ± 0.01

**Q.** How did the switch fluorescence ratio turn out when GGGGGCCTAG was run?
**A.** 0.981 ± 0.035

**Q.** For GGGGGCGACT, which switch fluorescence ratio is on record?
**A.** 0.978 ± 0.021

**Q.** With GGGGGCGCTG as the sequence, how does the switch fluorescence ratio read?
**A.** 1.02 ± 0.028

**Q.** GGGGGCGTTC was tested. Which switch fluorescence ratio did it give?
**A.** 1.015 ± 0.005

**Q.** Which switch fluorescence ratio does the source give for GGGGGCTAGG here?
**A.** 1.02 ± 0.02

**Q.** GGGGGCTGCC was tested. Which switch fluorescence ratio did it give?
**A.** 0.986 ± 0.011

**Q.** Which switch fluorescence ratio does the source give for GGGGGCTGCT here?
**A.** 0.962 ± 0.029

**Q.** Which switch fluorescence ratio does the source give for GGGGGCTGGT here?
**A.** 1 ± 0.0022

**Q.** For GGGGGCTTGT, which switch fluorescence ratio is on record?
**A.** 1 ± 0.019

**Q.** GGGGGGAATA was tested. Which switch fluorescence ratio did it give?
**A.** 1 ± 0.047

**Q.** For GGGGGGAGAC, which switch fluorescence ratio is on record?
**A.** 1.07 ± 0.19

**Q.** With GGGGGGATCA as the sequence, how does the switch fluorescence ratio read?
**A.** 0.985 ± 0.026

**Q.** With GGGGGGCCTC as the sequence, how does the switch fluorescence ratio read?
**A.** 0.981 ± 0.015

**Q.** With GGGGGGCGTT as the sequence, how does the switch fluorescence ratio read?
**A.** 0.998 ± 0.017

**Q.** GGGGGGCTAA was tested. Which switch fluorescence ratio did it give?
**A.** 0.984 ± 0.021

**Q.** GGGGGGCTAT was tested. Which switch fluorescence ratio did it give?
**A.** 0.976 ± 0.02

**Q.** With GGGGGGGAG as the sequence, how does the switch fluorescence ratio read?
**A.** 1.02 ± 0.021

**Q.** GGGGGGGCAT was tested. Which switch fluorescence ratio did it give?
**A.** 1.02 ± 0.031

**Q.** For GGGGGGGCCC, which switch fluorescence ratio is on record?
**A.** 1.01 ± 0.026

**Q.** For GGGGGGGCCT, which switch fluorescence ratio is on record?
**A.** 0.999 ± 0.036

**Q.** How did the switch fluorescence ratio turn out when GGGGGGGCTC was run?
**A.** 0.965 ± 0.035

**Q.** Which switch fluorescence ratio does the source give for GGGGGGGGCG here?
**A.** 1.01 ± 0.052

**Q.** For GGGGGGGGGA, which switch fluorescence ratio is on record?
**A.** 1.01 ± 0.039

**Q.** For GGGGGGGTCA, which switch fluorescence ratio is on record?
**A.** 0.994 ± 0.027

**Q.** Which switch fluorescence ratio does the source give for GGGGGGGTTG here?
**A.** 1.01 ± 0.083

**Q.** Which switch fluorescence ratio does the source give for GGGGGGTAGA here?
**A.** 1.02 ± 0.043
